{"source": "patent US20060270591A1", "about": "“Androgen receptor coregulators” (priority 2002, published 2006)", "key": {"GR": {"target": "T1, GR (Homo sapiens, UniProt P04150)", "T1 sequence (P04150 1-777)": "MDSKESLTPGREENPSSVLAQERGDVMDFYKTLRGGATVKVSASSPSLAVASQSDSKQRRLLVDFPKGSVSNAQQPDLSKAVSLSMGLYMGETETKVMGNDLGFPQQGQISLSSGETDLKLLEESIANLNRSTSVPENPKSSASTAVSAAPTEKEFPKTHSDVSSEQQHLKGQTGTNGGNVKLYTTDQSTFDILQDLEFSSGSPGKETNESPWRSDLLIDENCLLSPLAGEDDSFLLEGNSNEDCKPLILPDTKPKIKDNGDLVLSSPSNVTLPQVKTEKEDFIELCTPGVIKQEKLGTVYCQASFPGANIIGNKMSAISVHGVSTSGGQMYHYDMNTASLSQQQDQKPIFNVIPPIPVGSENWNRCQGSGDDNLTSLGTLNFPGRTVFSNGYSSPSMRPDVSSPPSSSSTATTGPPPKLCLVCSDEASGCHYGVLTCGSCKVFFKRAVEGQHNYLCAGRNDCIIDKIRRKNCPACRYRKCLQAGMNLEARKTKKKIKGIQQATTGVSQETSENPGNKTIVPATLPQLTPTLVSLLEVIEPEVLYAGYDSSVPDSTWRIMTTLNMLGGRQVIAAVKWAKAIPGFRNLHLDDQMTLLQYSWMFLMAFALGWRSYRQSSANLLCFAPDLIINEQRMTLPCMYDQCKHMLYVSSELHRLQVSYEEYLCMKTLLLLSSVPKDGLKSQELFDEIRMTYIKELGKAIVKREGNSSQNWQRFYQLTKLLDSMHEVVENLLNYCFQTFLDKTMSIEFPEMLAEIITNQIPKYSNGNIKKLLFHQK", "assay": "GR transactivation with ARA70 in DU145 cells (Example 3)", "type": "cell-based", "parameters": "expressed in transfected cells; host or cells: DU145", "description": "(§1) 411. Human prostate cancer DU145 and PC-3 cells were maintained in […] (DMEM) containing penicillin (25 U/ml), streptomycin (25 μg/ml), and 5% fetal calf serum (FCS). Human LNCaP cells were maintained in RPMI containing penicillin (25 U/ml), streptomycin (25 μg/ml), and 10% FCS. Transfections were performed using the calcium phosphate precipitation method, as previously described (Dynlacht et al. (1991) Cell 66, 563-576). Briefly, 4×10^5 cells were plated on 60-mm dishes 24 hours before transfection, and the medium was changed to DMEM with 5% charcoal-dextran stripped FCS (CS-FBS) one hour before transfection. Transfection medium contained a constant amount of reporter plasmid and indicated amounts of pSG5-receptor, ARA70, or pCMX-GAL fusion construct using pSG5 as a carrier to provide equal amounts of transfected DNA. Twenty-four hours after transfection, the medium was changed again, and the cells were treated with DHT or other treatments. After another 24 hours, the cells were harvested for chloramphenicol transferase (CAT) or luciferase assays. At least three independent experiments were carried out in each case. Superfect (Qiagen) was used for transfection in LNCaP cells. The transfection conditions followed the manufacturer's protocol. […]"}, "AR": {"test_system": "AR", "sequence (P10275 whole entry)": "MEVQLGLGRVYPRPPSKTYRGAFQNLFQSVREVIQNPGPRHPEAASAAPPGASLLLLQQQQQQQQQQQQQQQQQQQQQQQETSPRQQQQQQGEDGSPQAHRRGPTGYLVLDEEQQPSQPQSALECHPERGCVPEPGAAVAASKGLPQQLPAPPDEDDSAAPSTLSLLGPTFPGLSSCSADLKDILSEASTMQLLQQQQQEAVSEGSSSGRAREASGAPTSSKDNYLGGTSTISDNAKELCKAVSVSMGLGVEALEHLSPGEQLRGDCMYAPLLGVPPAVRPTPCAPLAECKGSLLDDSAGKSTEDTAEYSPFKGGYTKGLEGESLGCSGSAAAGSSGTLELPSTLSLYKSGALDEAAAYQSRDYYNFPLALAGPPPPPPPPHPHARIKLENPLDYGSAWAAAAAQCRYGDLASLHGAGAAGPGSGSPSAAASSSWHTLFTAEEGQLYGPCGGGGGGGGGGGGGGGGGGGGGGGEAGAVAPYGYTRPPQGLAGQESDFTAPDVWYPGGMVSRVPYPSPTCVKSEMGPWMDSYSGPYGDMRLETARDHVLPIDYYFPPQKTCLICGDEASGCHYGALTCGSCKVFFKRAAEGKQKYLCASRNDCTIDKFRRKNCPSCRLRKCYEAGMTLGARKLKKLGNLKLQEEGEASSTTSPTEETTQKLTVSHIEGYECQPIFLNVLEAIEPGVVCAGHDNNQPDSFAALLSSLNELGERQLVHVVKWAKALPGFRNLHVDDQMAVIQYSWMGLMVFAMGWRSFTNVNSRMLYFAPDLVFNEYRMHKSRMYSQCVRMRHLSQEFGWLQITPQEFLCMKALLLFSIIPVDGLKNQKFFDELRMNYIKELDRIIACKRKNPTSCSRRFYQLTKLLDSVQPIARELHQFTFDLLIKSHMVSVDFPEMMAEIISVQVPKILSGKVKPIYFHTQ", "assay": "AR transactivation assay, MMTV-CAT reporter, transient transfection (Example 1)", "type": "cell-based, human", "details": "DU145 cells; wild type AR; 1 nM DHT", "description": "Human prostate cancer DU145 or PC3 cells, or human lung carcinoma cells NCI H1299 were grown in Dulbecco's minimal essential medium (DMEM) containing penicillin (25 U/ml), streptomycin (25˜g/ml), and 5% fetal calf serum (FCS). One hour before transfection, the medium was changed to DMEM with 5% charcoal-stripped FCS. […] A β-galactosidase expression plasmid, pCMV-β-gal, was used as an internal control for transfection efficiency.\nThe medium was changed 24 hr posttransfection and the cells treated with either steroid hormones or hydroxyflutamide, and cultured for an additional 24 hr. Cells were harvested and assayed for CAT activity after the cell lysates were normalized by using β-galactosidaseas an internal control. Chloramphenicol acetyltransferase (CA) activity was visualized by PhosphorImager (Molecular Dynamics) and quantitated by ImageQuant software (Molecular Dynamics)."}, "PR": {"target": "T2, PR (Homo sapiens, UniProt P06401)", "T2 construct": "expressed in transfected cells; host or cells: DU145, PC-3", "T2 sequence (P06401 1-933)": "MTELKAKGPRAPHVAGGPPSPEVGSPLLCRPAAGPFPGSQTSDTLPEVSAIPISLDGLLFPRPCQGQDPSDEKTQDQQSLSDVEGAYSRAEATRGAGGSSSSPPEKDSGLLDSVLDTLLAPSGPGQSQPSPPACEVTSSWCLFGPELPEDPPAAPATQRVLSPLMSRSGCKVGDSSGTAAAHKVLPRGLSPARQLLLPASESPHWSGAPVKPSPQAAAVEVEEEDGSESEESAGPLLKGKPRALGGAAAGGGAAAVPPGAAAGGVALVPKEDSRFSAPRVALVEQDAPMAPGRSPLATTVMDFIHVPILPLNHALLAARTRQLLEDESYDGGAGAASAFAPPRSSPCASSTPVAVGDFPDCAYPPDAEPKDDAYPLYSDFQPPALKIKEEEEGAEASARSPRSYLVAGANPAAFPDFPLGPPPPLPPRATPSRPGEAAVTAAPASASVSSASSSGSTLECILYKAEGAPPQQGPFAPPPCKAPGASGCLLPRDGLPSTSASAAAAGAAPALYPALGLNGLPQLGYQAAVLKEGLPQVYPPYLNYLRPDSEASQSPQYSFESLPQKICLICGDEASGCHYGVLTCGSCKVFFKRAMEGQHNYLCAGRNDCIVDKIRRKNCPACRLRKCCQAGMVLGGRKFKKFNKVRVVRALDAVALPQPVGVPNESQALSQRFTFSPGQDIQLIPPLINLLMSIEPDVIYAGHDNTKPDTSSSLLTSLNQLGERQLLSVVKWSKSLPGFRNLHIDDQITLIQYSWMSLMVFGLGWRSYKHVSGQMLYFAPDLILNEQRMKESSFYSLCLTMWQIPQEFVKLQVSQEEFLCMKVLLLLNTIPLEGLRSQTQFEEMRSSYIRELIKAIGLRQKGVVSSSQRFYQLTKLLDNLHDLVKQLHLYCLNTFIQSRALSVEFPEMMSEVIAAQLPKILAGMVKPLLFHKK", "assay": "PR transactivation with ARA70 in DU145 cells (Example 3)", "type": "cell-based", "description": "as §1"}}, "data": [{"substance": "ARA70: ligand-enhanced AR coregulator, full length ARA70", "values": [{"measurement": "enhancement of GR transactivation", "setting": "GR", "result": "2-3 fold"}, {"measurement": "AR transcription activity with cotransfected coactivator", "setting": "AR", "result": 36, "unit": "fold"}, {"measurement": "enhancement of PR transactivation", "setting": "PR", "result": "2-3 fold"}]}]}
